Results on 5 molecules are retold here after article PMC3390401, “Phosphorylation-Dependent Interactions between Crb2 and Chk1 Are Essential for DNA Damage Checkpoint” (PLoS Genetics, 2012).

One assay concerns the target Chk1 (UniProt P34208). As to the kind of experiment: biotin-peptide streptavidin pull-down, Coomassie or immunoblot.
For assay [1], the target named is Crb2(67–85) peptide, unphosphorylated (S. pombe) (UniProt P87074). As to the kind of experiment: pull-down; Same peptide pull-down repeated; eluates and serial dilutions of Chk1-YFH input examined by immunoblotting with an anti-GFP antibody. On the technique in general: Immunoblotting shows a protein as a band on a membrane.
The target of assay [2] is Crb2(67–85)pT73pS80 peptide (S. pombe) (UniProt P87074). Described as above.
Assay [3] deals with Crb2(67–85)pS80 peptide (S. pombe) (UniProt P87074). The description is as above.
In assay [4] the target is Crb2(67–85)pT73 peptide (S. pombe) (UniProt P87074). The description is as above.
In assay [5] the target is Crb2(67–85)pT73pS80 peptide (S. pombe) (UniProt P87074). As to the kind of experiment: pull-down; Eluted Chk1-YFH incubated with 2 µg biotin-labeled peptide at 4°C for 2 h, peptides captured on streptavidin Dynabeads M-280, washed with lysis buffer (50 mM Hepes pH 7.5, 100 mM NaCl, 1 mM EDTA, 10% glycerol, 0.05% NP-40); eluates and input on 4%–20% SDS-PAGE, Coomassie staining.

The next assay addresses T1, His-GST-Crb2(521–778) (S. pombe, UniProt P87074 521-778).
T1 construct: Crb2, S. pombe, residues 521-778 (the BRCT domains); also called BRCTs in Crb2; source: E. coli, purified with Ni-NTA beads; not shown: His, N-terminal, kept; GST, N-terminal, kept
T1 sequence (looked up): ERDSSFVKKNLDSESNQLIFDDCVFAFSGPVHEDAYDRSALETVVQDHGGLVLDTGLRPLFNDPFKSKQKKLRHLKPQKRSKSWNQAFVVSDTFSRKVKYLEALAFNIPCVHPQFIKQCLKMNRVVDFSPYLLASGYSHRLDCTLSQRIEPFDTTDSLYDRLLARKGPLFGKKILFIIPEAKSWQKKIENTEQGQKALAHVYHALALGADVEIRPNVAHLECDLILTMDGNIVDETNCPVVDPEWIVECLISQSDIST
As to the kind of experiment: pull-down; His-GST-Crb2(521–778) incubated with H2A peptides, peptides pulled down by streptavidin Dynabeads, eluted by boiling in SDS loading buffer; 4%–20% SDS-PAGE, Coomassie staining. The conditions noted are these: both partners purified.

Non-standard residues stand in square brackets, D forms with d. No end group written: not given here. pS = N[C@@H](COP(=O)(O)O)C(=O)O

Turning to “Crb2 67-85 (from UniProt P87074) pT73pS80 peptide”, the “other: share of Chk1 input pulled down” value is “stronger; reference about 1%” with Chk1 (reference: pS80 peptide, sites T73) and “same; reference about 7%” with Chk1 (reference: pT73 peptide, sites S80).
Consider “Crb2 67-85 (from UniProt P87074) pT73 peptide”, for which, in the assay with Chk1 (reference: unphosphorylated peptide, sites T73), the “other: share of Chk1 input pulled down” value is “gained; reference lower than 0.08%”.
For “Crb2 67-85 (from UniProt P87074) pS80 peptide”, in the assay with Chk1 (reference: unphosphorylated peptide, sites S80), the “other: share of Chk1 input pulled down” value is “gained; reference lower than 0.08%”.
Regarding “YFP-Flag-His6 (YFH)-tagged Chk1 (from UniProt P34208 1-496) (enzyme)”, the percent of input pulled down (% of the input) is under 0.08 in assay [1]; 7 in assay [2]; 1 in assay [3]; 7 in assay [4]; over 5 in assay [5].

B1: Hta1(120–132-pS129) peptide (peptide, UniProt P04909 120-132, looked up)
peptide: KTSGRTGKP[pS]QEL
notes: Histone H2A Hta1, S. pombe, residues 120-132; also called γH2A peptide; phosphorylated histone H2A peptide
For B1, the binding result with His-GST-Crb2(521–778) is recorded as “binds”.
